Results on 17 molecules are retold here after patent US20220112288A1 (published 2022).

B1: 75110_01A06A (antibody, V domains shown)
VH: EVQLVESGGGLVQPGGSLRLSCAASGFTFSSYWMSWVRQAPGKGLEWVANINEDGNEKYYVDSVKGRLTISRDNAKNSLYLQMNSLRAEDTAVYFCAREGGQWLSLDYWGQGALVTVSS
VL: DIQMTQSPSSVSASVGDRVSITCRASQGISSWLAWYQQKPGKAPKILIYGASSLQSGVPSRFSGSGSGTDFTLTISSLQPEDFATYYCQQANSFPWTFGQGTKVEIK
notes: Tested as antibody purified from AlivaMab Mouse hybridoma supernatant (captured by anti-mouse IgG Fc)
B2: 75110_02N15A (antibody, V domains shown)
VH: EVQLVESGGGLVQPGGSLRLSCAASGFTFSSYWMSWVRQAPGKGLEWVANINEDGNEKYYVDSVKGRFTISRDNAKNSLFLQMNSLRAEDTAVYFCAREGGQWLALDHWGQGALVTVSS
VL: DIQMTQSPSSVSASVGDRVTITCRASQGISSWLAWYQQKPGKAPKFLISGASSLQSGVPSRFSGSGSGTDFTLTISSLQPEDFATYYCQQANSFPWTFGQGTKVEFK
notes: as for B1
B3: 75110_13P22A (antibody, V domains shown)
VH: QVQLQQWGAGLLKPSETLSLTCAAYGGSFSGYYWSWIRQSPGKGLEWIGEINQSGNTNYNPSLKSRVTISADTSKNQFSLKLSSVTAADTAVYYCARVLNWFDYWGQGILVTVSS
VL: DIQMTQSPSSVSASVGDRVTITCRASQGISDWLAWYQQKSGKAPDLLIFAASSLQSGVPSRFSGSGSGTDFTLTISSLQPEDFATYYCQQANSFPYTFGQGTKLEIK
notes: Tested as antibody purified from AlivaMab Mouse Kappa hybridoma (human V regions, kappa light chain, mouse Fc captured by anti-mouse Fc sensors)
B4: 75110_12H19A (antibody, V domains shown)
VH: EVQLVESGGGLVQPGGSLRLSCAASGFTFSSYWMSWVRQAPGQGLEWVANINEDGNEKYHVDSVKGRLTISRDNAKNSLYLQMNSLRGVDTAVYFCAREGGQWLALDYWGQGALVTVSS
VL: DIQMTQSPSSVSASVGDRVSITCRASQGISSWLAWYQQKPGKAPKLLIYGASGLQSGVPSRFSGSGSGTDFTLTISSLQPEDFATYYCQQANSFPWTFGQGTKVEIK
notes: as for B3
B5: 75110_07J24A (antibody, V domains shown)
VH: QAQLQESGPGLVKPSETLSLTCTVSGGSISSYYYNWIRQPAGKGLEWIGRIYTSGRTDYNPSLKSRVTMSADTSKNQFSLKLSSVTAADTAVYYCARDEGPTDAFDIWGQGTMVTVSS
VL: DIVMTQTPLSLPVTPGEPASISCRSSQSLLDSDDGNTYLDWYLQKPGQSPHLLIYTLSYRASGVPDRFSGSGSGSDFTLKISRVEAEDVGVYYCMQRIEFPFTFGPGTKVDIK
notes: Tested as antibody purified from AlivaMab Mouse Kappa hybridoma (human V regions, kappa light chain, mouse Fc captured by anti-mouse Fc sensors); also called 75110_07124A
B6: 75110_07J02A (antibody, V domains shown)
VH: EVQLVESGGGLVQPGGSLRLSCAASGFTFSSYWMSWVRQAPGKGLEWVANIKEDGSEKYYVDSVKGRFTISRDNAKNSLYLQMNSLRAEDTAVYYCARDGSYSGYGMDVWGQGTTVTVSS
VL: AIQMTQSPSSLSASVGDRVTITCRASQGIRNDLGWYQQKPGKAPKLLIYAASSLQSGVPSRFSGRGSGTDFALTISSLQPEDFATYYCLLDYNYPYTFGQGTRLEIK
notes: Tested as antibody purified from AlivaMab Mouse Kappa hybridoma (human V regions, kappa light chain, mouse Fc captured by anti-mouse Fc sensors); also called 75110_07102A
B7: 75110_08A13A (antibody, V domains shown)
VH: EVQLVESGGGLVQPGGSLRLSCAASGFIFSSYWMSWVRQAPGKGLEWVANIKQDGSEKYYMDSVKGRFTISRDNAKNSLYLQMNSLRAEDTAVYYCARDNSYYYYGMDVWGQGTTVTVSS
VL: AIQMTQSPSSLSASVGDRVTITCRASQGIRDDLGWYQQKPGKAPKLLIFAASSLQSGVPSSFSGSGSGTDFTLTISSLQPEDFATYYCLHHYNYPYTFGQGTKLEIK
notes: as for B3
B8: 75110_10K21A (antibody, V domains shown)
VH: EVQLVESGGGLVQPGGSLRLSCAASGFTFSSYWMTWVRQAPGKGLEWVANIKQDGSEKYYVDSVKGRFTISRDNAKNSLYLQMNSLRAEDTAVYYCVRDRYDALDIWGQGTMVTVSS
VL: AIQMTQSPSSLSASVGDRVTITCRASQGIRNDLNWYQQKPGKAPKLLIYAASSLQSGVPSRFSGSGSGTDFTLTISSLQAEDFATYYCLKDYNYPYTFGQGTKLEIK
notes: as for B3
B9: 75110_08F20A (antibody, V domains shown)
VH: QVQLQESGPGLVKPSETLSLTCSVSGGSISTYYWSWIRQPAGKGLEWIGRICTTENTNYNPSLKSRVTMSIDSSKNQFSLKLSSVTAADTAVYYCARDLERLNYYGMDVWGQGATVTVSS
VL: DIQMTQSPSSLSASVGDRVTITCQASQDISKYLNWYQQKPGIAPKLLIYDASNLETGVPSRFSGSGSGTDFTFTISSLQPEDFATYYCQQYDSLPITFGQGTRLEIK
notes: as for B3
B10: 75110_14N19A (antibody, V domains shown)
VH: QVQLQESGPGLVKPSETLSLTCTVSGGSISRYYWSWIRQPAGKGLEWIGRICTSENPNYNPALKSRVTMSVDTSKNQFSLKLSSVTAADTAVYYCARELERLNYYGMDVWGQGTTVTVSS
VL: DIQMTQFPSSLSASVGDRVTITCQASQDISNYLNWYQQKPGKAPKLLIYDASNLESGVPSRFSGRGSGTDFTFTISSLQPEDFATFYCQQYDTLPITFGQGTRLEIK
notes: as for B3
B11: 75110_08G08A (antibody, V domains shown)
VH: QVQLQESGPGLVKPSETLSLTCSVSGGSISTYYWSWIRQPAGKGLEWIGRICTTENTNYNPSLKSRVTMSIDSSKNQFSLKLSSVTAADTAVYYCARDLERLNYYGMDVWGQGATVTVSS
VL: DIQMTQSPSSLSASVGDRVTITCQASQDISNYLNWYQQKPGIAPKLLIYDASNLETGVPSRFSGSGSGTDFTFTISSLQPEDIATYYCQQYDSLPITFGQGTRLEIK
notes: as for B3
B12: 75110_12K21A (antibody, V domains shown)
VH: QVQLQQWGAGLLKPSETLSLTCAVSGGSFSGYYWSWIRQPPGKGLEWIGEINHSGSTNCNPSLKSRVTISVDTSNNQFSLKLSSVTAADTAVYYCARVLNYFDYWGQGTLVTVSS
VL: DIQMTQSPSSVSASVGDRVTITCRASPDIANWLAWYQQKPGKAPELLIYAASSLQSGVPSRFSGSGSGTDFTLTISSLQPEDFATYFCQQANSFPLTFGGGTKVESK
notes: as for B3
B13: 75110_13P21A (antibody, V domains shown)
VH: QVQLQQWGAGLLKPSETLSLTCAVSGGSFSGYYWSWIRQPPGKGLEWIGEINHSGSTNCNPSLKSRVTISVDTSNNQFSLKLSSVTAADTAVYYCARVLNYFDYWGQGTLVTVSS
VL: DIQMTQSPSSVSASVGDRVTITCRASPDIANWLAWYQQKPGKAPELLIYAASSLQSGVPSRFSGSGSGTDFTLTISSLQPEDFATYFCQQANSFPLTFGGGTKVESK
notes: as for B3
B14: 75110_13C13A (antibody, V domains shown)
VH: QVQLQQWGAGLLKPSETLSLTCAVSGGSFSGYYWSWIRQPPGKGLEWIGEINHSGSTNCNPSLKSRVTISVDTSKNQFSLKLSSVTAADTAMYYCARVLNFFDYWGQGTLVTVSS
VL: DIQMTQTPSSVSASVGDRVTITCRASPGISNWLAWYQQKPGKAPELLIYAASSLQSGVPSRFSGSGSGTDFTLTISSLQPEDFATYFCQQANSFPLTFGGGTKVESK
notes: as for B3
B15: 75110_07N04A (antibody, V domains shown)
VH: QVQLQESGPGLVKPSETLSLTCSVSGVSSTSFYWSWIRQPAGKGLDWIGRIYTSGSTNYNPSLKSRVTMSVDTSKNQFSLKLSSVTAADTAVYYCARDPGYSDAFAIWGQGTMVTVSS
VL: not shown
notes: as for B3
B16: 75110_14G10A (antibody, V domains shown)
VH: EVQLVESGGGLVKPGGSLRLSCAASGFTFSSYSMNWVRQAPGKGLEWVSFISSSSSYIYYADSVKGRFTISRDNAKNSLYLQMNSLRAEDTAVYYCARERGDDYGDYEGAFDIWGQGTMVTVSS
VL: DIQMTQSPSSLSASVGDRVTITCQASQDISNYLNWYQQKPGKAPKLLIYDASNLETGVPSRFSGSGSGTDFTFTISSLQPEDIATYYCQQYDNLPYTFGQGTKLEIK
notes: as for B3
B17: 75110_14I16A (antibody, V domains shown)
VH: QVQLQESGPGLVKPSETLSLTCTVSNGSISSYYWSWIRQSAGKGLEWIGRIYTSGSTNYNPSLKSRVTMLVDTSKNQFSLKLSSVTAADTAVYYCARDREDYYYYGMDVWGQGTTVTVSS
VL: DIQMTQSPSSLSASVGDRVTITCQASHDISNYLNWYQQKPGKAPKLLLYYASNLETGVPSRFSGSGSGTDFTFTITSLQPEDIGTYSCQQYDNLPLTFGGGTKVEIK
notes: Tested as antibody purified from AlivaMab Mouse Kappa hybridoma (human V regions, kappa light chain, mouse Fc captured by anti-mouse Fc sensors); also called 75110_14116A

What is called Kd is the free concentration of one partner at which half of the binding sites on the other are occupied at equilibrium, for simple one-to-one binding. Usually koff stands for the first-order rate constant of dissociation. By kon is commonly meant the rate constant with which the complex forms.

In one test the target is T1, Recombinant human CD4 (R&D Systems, Cat. 10327-CD) (human, UniProt P01730 26-390, limits assumed).
T1 construct: Soluble analyte in the Octet assay
Description: BLI Octet, mAb on anti-mouse Fc sensor, CD4 100/50/25 nM, 1:1 global fit.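 Note: antibodies loaded at 10 µg/mL, an unrelated mouse-derived antibody served as internal reference control, association and dissociation phases fitted after Savitzky-Golay smoothing.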
As to B1, the Kd amounted to 14 nM, the Response turned out to be 0.36, the dissociation rate constant (koff) turned out to be 0.0014 s⁻¹ and the kon is 100000 M⁻¹ s⁻¹.
For B2, in that order: 11 nM, 0.25, 0.0017 s⁻¹ and 160000 M⁻¹ s⁻¹.

The target in another test is T2, Recombinant human CD4 (R&D Systems, Cat. 10327-CD) (human, UniProt P01730 26-390, limits assumed).
T2 construct: Bought protein; also called huCD4
Kind of test: BLI (Octet Red384), purified antibody on anti-mouse Fc sensors, human CD4 100/50/25 nM, global 1:1 fit.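 Note: antibodies loaded at 10 µg/mL, curves fitted across association and dissociation phases, with an unrelated mouse-derived antibody serving as internal reference control.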
Consider B3, for which the dissociation constant Kd turned out to be 14 nM, the Response was determined as 0.16, the koff came to 0.0012 s⁻¹ and the kon was found to be 86000 M⁻¹ s⁻¹.
For B4 the same measures were 13 nM, 0.25, 0.0022 s⁻¹ and 170000 M⁻¹ s⁻¹.
For B5, in that order: 7.1 nM, 0.19, 0.0006 s⁻¹ and 85000 M⁻¹ s⁻¹.
For B6 the same measures were 14 nM, 0.1, 0.0022 s⁻¹ and 160000 M⁻¹ s⁻¹.
Consider B7, for which the Kd is 6.6 nM, the Response amounted to 0.12, the koff came out at 0.00078 s⁻¹ and the kon amounted to 120000 M⁻¹ s⁻¹.
In the case of B8, the Kd turned out to be 3.1 nM, the Response was 0.2, the koff is 0.00049 s⁻¹ and the on-rate (kon) came out at 160000 M⁻¹ s⁻¹.
For B9, the Kd was determined as 8.4 nM, the Response was found to be 0.22, the koff is 0.0014 s⁻¹ and the on-rate (kon) stood at 170000 M⁻¹ s⁻¹.
For B10 the same measures were 11 nM, 0.17, 0.0014 s⁻¹ and 130000 M⁻¹ s⁻¹.
For B11 the same measures were 20 nM, 0.15, 0.0035 s⁻¹ and 180000 M⁻¹ s⁻¹.
With B12, the equilibrium dissociation constant (Kd) was 1.8 nM, the Response worked out at 0.22, the off-rate constant (koff) came to 0.00021 s⁻¹ and the on-rate constant (kon) turned out to be 110000 M⁻¹ s⁻¹.
For B13 the same measures were 3 nM, 0.17, 0.00029 s⁻¹ and 95000 M⁻¹ s⁻¹.
For B14, in that order: 11 nM, 0.21, 0.0013 s⁻¹ and 120000 M⁻¹ s⁻¹.
Consider B15, for which the Kd is less than 0.001 nM, the Response was 0.2, the dissociation rate constant (koff) is less than 1e-07 s⁻¹ and the kon amounted to 84000 M⁻¹ s⁻¹.
For B16, in that order: 0.38 nM, 0.19, 0.00019 s⁻¹ and 500000 M⁻¹ s⁻¹.
For B17 the same measures were 10 nM, 0.14, 0.0017 s⁻¹ and 160000 M⁻¹ s⁻¹.
